The values below come from patent US20220112288A1 (published 2022).

A value given as a limit tells only on which side of the number the result lay.

In general, Kd refers to the free concentration of one partner at which half of the binding sites on the other are occupied at equilibrium, for simple one-to-one binding. A word on the koff: it is the first-order rate constant of dissociation. For orientation: kon means the second-order rate constant of association.

In assay [1] the target is T1, Recombinant human CD4 (R&D Systems, Cat. 10327-CD) (human, UniProt P01730 26-390, limits assumed).
T1 construct: Bought soluble recombinant protein used as analyte at 100 nM; also called huCD4
The assay is described as follows: BLI (Octet Red384), non-clonal supernatant on AMC sensor, 100 nM human CD4. (In general: Biolayer interferometry detects binding as a change in optical thickness at a sensor tip.)

For assay [2], the target named is T1, Recombinant human CD4 (R&D Systems, …). The assay is described as follows: BLI (Octet Red384), non-clonal supernatant on AMC sensor, 100 nM human CD4, 1:1 local fit.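 Further: hybridoma antibodies captured from supernatant, single CD4 concentration as analyte, association and dissociation phases fitted together, giving single-point kinetic estimates per supernatant.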

B1: 75110_03I23A (antibody, V domains shown)
VH: QVQLQESGPGLVKPSETLSLTCTASGGSITSYYWNWIRQPAGKGLEWIGRIYTSGSTNYNPSLKSRVTMSVDTSKNQFSLKLSSVTAADTAVYYCARDPGYSDAFNIWGQGTMVTVSS
VL: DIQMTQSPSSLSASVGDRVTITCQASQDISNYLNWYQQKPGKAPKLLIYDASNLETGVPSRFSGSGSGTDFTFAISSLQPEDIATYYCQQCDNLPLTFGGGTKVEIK
notes: Non-clonal AlivaMab Mouse Kappa hybridoma supernatant, captured by anti-mouse IgG Fc (human V regions, mouse Fc)
For B1, the Response in assay [1] came to 0.18. Also, in assay [2], the equilibrium dissociation constant (Kd) came out at 8.6 nM, the koff is 0.0012 s⁻¹ and the kon was determined as 140000 M⁻¹ s⁻¹.

B2: 75110_07N04A (antibody, V domains shown)
VH: QVQLQESGPGLVKPSETLSLTCSVSGVSSTSFYWSWIRQPAGKGLDWIGRIYTSGSTNYNPSLKSRVTMSVDTSKNQFSLKLSSVTAADTAVYYCARDPGYSDAFAIWGQGTMVTVSS
VL: not shown
notes: as for B1
Turning to B2, the Response in assay [1] amounted to 0.1. In assay [2], the Kd was < 0.001 nM, the koff is < 1e-07 s⁻¹ and the on-rate constant (kon) is 140000 M⁻¹ s⁻¹.

B3: 75110_02I18A (antibody, V domains shown)
VH: EVQVVESGGGLVQPGGSLRLSCAASGFTFSSYDMHWVRQATGKGLEWVSTIGTAGDTYYPGSVKGRFTISRENAKNSLYLQMNSLRAGDTAVYYCARGGYYYYGMDVWGQGTTVTVSS
VL: EIVLTQSPGTLSLSPGERATLSCRASQSVSSSYLAWYQQKPGQSPRLLIHGASSRATGIPDRVSGSGSGTDFTLTISRLEPEDFAVYYCQQYGSSPFTFGPGTKVDIK
notes: as for B1
As to B3, the Response in assay [1] amounted to 0.16. In assay [2], the equilibrium dissociation constant (Kd) was 9 nM, the off-rate (koff) amounted to 0.0033 s⁻¹ and the on-rate constant (kon) was 370000 M⁻¹ s⁻¹.

B4: 75110_05F19A (antibody, V domains shown)
VH: EVQLVESGGGLVQPGGSLRLSCAASGFTFSNYDVHWVRQPTGKGLEWVSTIGTAGDTYYPGSVKGRFTISRENAKNSLYLQMNSLRAGDTAVYYCARGGYDYYGLDVWGQGTTVTVSS
VL: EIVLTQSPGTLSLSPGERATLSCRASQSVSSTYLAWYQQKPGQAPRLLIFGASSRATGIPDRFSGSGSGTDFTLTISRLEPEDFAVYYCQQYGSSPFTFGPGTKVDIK
notes: as for B1
With B4, in assay [1], the Response worked out at 0.18. Also, in assay [2], the Kd is 0.032 nM, the koff was found to be 4.4e-06 s⁻¹ and the on-rate (kon) is 140000 M⁻¹ s⁻¹.

B5: 75110_08K12A (antibody, V domains shown)
VH: EVQLVESGGGLVQPGGSLRLSCAASGFTFSSYDMHWVRQATGKGLEWVSTIGTAGDTYYPGSVKGRFTISRENAENSLYLQMNSLRAGDTALYYCARGDYYYYGMDVWGQGTTVTVSS
VL: EIVLTQSPGTLSLSPGERATLSCRASQSVSSTYLAWYQQKPGQAPRLLIYGASNRATGIPDRFSGSGSGTDFTLTISRLEPEDFAVYYCQQFGTSPFTFGPGTKVDIK
notes: as for B1
With B5, the Response in assay [1] is 0.11. In assay [2], the Kd was 4.5 nM, the off-rate constant (koff) turned out to be 0.0031 s⁻¹ and the kon worked out at 700000 M⁻¹ s⁻¹.

B6: 75110_05G15A (antibody, V domains shown)
VH: QVQLQESGPGLVKPSQTLSLTCTVSGGSISSGGYFWSWIRQHPGKGLEWIGCIYYSGSTYYIPSLKSRVTISVDTSKNQFSLKLRSVTAADTAVYYCARDGYDYWYFDLWGRGTLVTVSS
VL: not shown
In the case of B6, the Response in assay [1] turned out to be 0.24. Also, in assay [2], the dissociation constant (Kd) is < 0.001 nM, the koff is < 1e-07 s⁻¹ and the kon worked out at 78000 M⁻¹ s⁻¹.

B7: 75110_03I08A (antibody, V domains shown)
VH: QVQLQESGPGLVKPSETLSLTCTVSGGSISSYYWSWIRQPPGKGLEWIGYIYYSGSTNYNPSLKSRVTISVDTSKNQFSLKLSSVTAADTAVYYCAREGEQWFYGLDVWGQGTTVTVSS
VL: EIVLTQSPGTLSLSPGERATLSCRASQSVSSTYLAWYQQKPGQAPRLLIYGSSSRATGIPDRFSGSGSGTDFTLTISRLEPEDFAVYYCQQYGNSFPITFGQGTRLEIK
notes: as for B1
In the case of B7, in assay [1], the Response is 0.07. Moreover, in assay [2], the equilibrium dissociation constant (Kd) is < 0.001 nM, the koff was < 1e-07 s⁻¹ and the kon came to 37000 M⁻¹ s⁻¹.

B8: 75110_05A11A (antibody, V domains shown)
VH: EVQLVESGGGLVKPGGSLTLSCAASGFTFSNTWMSWVRQAPGKGLEWVGRIKSKIDGGTTDYAAPVKGRFTISRDDSKNTLYLQMNSLKTEDTAVYYCTTSGTYSSGWGLFDYWGQGTLVTVSS
VL: DIQMTQSPSSLSASVGDRVTITCQASQDISNYLNWYQQKPGKAPKLLIYDTSNLEAGVPSRFSGSGSGTHFTLTISSLQPEDIATYYCQQYDNLPFTFGGGTRVEIK
notes: as for B1
For B8, the Response in assay [1] is 0.15. Also, in assay [2], the dissociation constant Kd was 3.2 nM, the off-rate constant (koff) turned out to be 0.00055 s⁻¹ and the association rate constant (kon) is 170000 M⁻¹ s⁻¹.

B9: 75110_04H17A (antibody, V domains shown)
VH: QVQLQESGPGLVKPSETLSLTCTVSGGSISTYYWSWIRQSAGKGLEWIGRIYTSERPNYNPSLKSRVTMSVDTSKNQFSLKLNSVSAADTAVYYCARELERPYYYGMDVWGQGTTVTVSS
VL: DVQMTQSPSSLSASVGGRVTITCQASQDISNYLNWYQQKPGKAPKLLIYYASNLETGVPSRFSGSGSGTDFTFTISSLQPEDFATYYCQQYDNLPLTFGGGTKVEIK
notes: as for B1
Take B9: the Response in assay [1] is 0.16. In assay [2], the Kd turned out to be 9 nM, the dissociation rate constant (koff) came out at 0.00097 s⁻¹ and the association rate constant (kon) worked out at 110000 M⁻¹ s⁻¹.

B10: 75110_04G02A (antibody, V domains shown)
VH: not shown
VL: DIVMTQSPDSLAVSLGERATINCKSSQSVLYSSNNKNYLAWYQQKPGQPPKLLFYWASARESGVPDRFSGSGSGTDFTLTISSLQAEDVALYYCQQYFGSFPTFGQGTKLEIK
notes: as for B1
For B10, in assay [1], the Response amounted to 0.21. Besides, in assay [2], the Kd was determined as 0.76 nM, the dissociation rate constant (koff) was found to be 0.00017 s⁻¹ and the kon amounted to 220000 M⁻¹ s⁻¹.

B11: 75110_08A13A (antibody, V domains shown)
VH: EVQLVESGGGLVQPGGSLRLSCAASGFIFSSYWMSWVRQAPGKGLEWVANIKQDGSEKYYMDSVKGRFTISRDNAKNSLYLQMNSLRAEDTAVYYCARDNSYYYYGMDVWGQGTTVTVSS
VL: AIQMTQSPSSLSASVGDRVTITCRASQGIRDDLGWYQQKPGKAPKLLIFAASSLQSGVPSSFSGSGSGTDFTLTISSLQPEDFATYYCLHHYNYPYTFGQGTKLEIK
notes: as for B1
For the molecule B11, the Response in assay [1] was found to be 0.35. Also, in assay [2], the Kd is 4.4 nM, the dissociation rate constant (koff) amounted to 0.001 s⁻¹ and the kon amounted to 230000 M⁻¹ s⁻¹.

B12: 75110_02K11A (antibody, V domains shown)
VH: QVQLQESGPGLVKPSQTLSLTCTVSGGSISSGFYYWTWIRQHPGKGLEWIGYISYSGNTYYNPSFKSRLTISVDTSKSQFSLKLSSVTAADTAVYYCARDRPSNFDAFDIWGQGTMVTVSS
VL: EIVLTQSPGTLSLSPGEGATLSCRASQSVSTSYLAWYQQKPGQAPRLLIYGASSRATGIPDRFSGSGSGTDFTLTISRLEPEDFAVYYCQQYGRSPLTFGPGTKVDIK
notes: as for B1
Take B12: in assay [1], the Response is 0.14. Further, in assay [2], the equilibrium dissociation constant (Kd) stood at 17 nM, the koff was 0.0022 s⁻¹ and the kon came out at 130000 M⁻¹ s⁻¹.

B13: 75110_02E22A (antibody, V domains shown)
VH: QVQLQESGPGLVKPSETLSLTCTVSGGSISSFYWSWIRQPAGKGLEWIGRIYTSGSTNYNPSLKSRVTMSVDTSKNQFSLKLSSVTAADTAVYYCARELEKRNYYGMDVWGQGTTVTVSS
VL: DIQMTQSPSSLSASVGDRVTITCQASHDISNYLNWYQQKPGKAPKLLIFDASTLETGVPSRFSGSGSGTYFTFTIRSLQPEDIATYYCQQYDSLPLTFGGGTKVEIK
notes: as for B1
As to B13, the Response in assay [1] is 0.18. For the same molecule, in assay [2], the dissociation constant Kd is 20 nM, the koff came to 0.0042 s⁻¹ and the kon was 210000 M⁻¹ s⁻¹.

B14: 75110_04D20A (antibody, V domains shown)
VH: QVQLQESGPGLVKPSETLSLTCTVSNGSISDYYWSWIRQPAGKGLEWIGRIYTSGSTNYNPSLKSRITMSVDTSKNQFSLELSSVTAADTAVYYCARELERYYFYGVDVWGQGTTVTVSS
VL: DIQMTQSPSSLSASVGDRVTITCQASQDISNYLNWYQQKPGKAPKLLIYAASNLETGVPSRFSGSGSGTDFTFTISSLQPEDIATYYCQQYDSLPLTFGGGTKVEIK
notes: as for B1
As for B14, the Response in assay [1] was 0.2. In assay [2], the equilibrium dissociation constant (Kd) was 0.88 nM, the koff stood at 0.00013 s⁻¹ and the kon amounted to 150000 M⁻¹ s⁻¹.

B15: 75110_06K03A (antibody, V domains shown)
VH: QVQLQESGPGLVKPSETLSLTCTVSGGSISTYYWSWIRQPAGKGLEWIGRINTSGSTTYNPSLKSRVTMSVDTSKNQFSLKLSSVTAADTAVYYCARELERYYYYGMDVWGQGTTVTVSS
VL: DIQMTQSPSSLSASVGDRVTITCQASQDISNYLNWYQQKPGKAPKLLIYYASILETGVPSRFSGSGSGTDFTFTISSLQPEDIATYYCQQYDSLPLTFGGGTKVEIK
notes: as for B1
For B15, the Response in assay [1] worked out at 0.14. In assay [2], the Kd stood at 6.8 nM, the koff came to 0.0019 s⁻¹ and the association rate constant (kon) worked out at 280000 M⁻¹ s⁻¹.

B16: 75110_01C18A (antibody, V domains shown)
VH: EVQLVESGGGLIQPGGSLRLSCAASGFTVSSNYMNWVRQAPGKGLEWVSVIYAGDNTYSADSVKGRFTISRDNSNNTLCLQMNSLRAEDTAVYYCAREGGTTGAFDIWGQGTMVTVSS
VL: DIQMTQSPSSVSASVGDRVTITCRASQGINSWLAWYQQKPGKAPKLLIYAASSLQSGVPSRFSGSGSGTDFTLTISSLQPEDFATYYCQQGNSFPYTFGQGTKLEIK
notes: as for B1
As to B16, in assay [1], the Response was 0.25. Further, in assay [2], the dissociation constant Kd amounted to 16 nM, the koff was 0.0013 s⁻¹ and the on-rate (kon) came out at 86000 M⁻¹ s⁻¹.

B17: 75110_07J24A (antibody, V domains shown)
VH: QAQLQESGPGLVKPSETLSLTCTVSGGSISSYYYNWIRQPAGKGLEWIGRIYTSGRTDYNPSLKSRVTMSADTSKNQFSLKLSSVTAADTAVYYCARDEGPTDAFDIWGQGTMVTVSS
VL: DIVMTQTPLSLPVTPGEPASISCRSSQSLLDSDDGNTYLDWYLQKPGQSPHLLIYTLSYRASGVPDRFSGSGSGSDFTLKISRVEAEDVGVYYCMQRIEFPFTFGPGTKVDIK
notes: as for B1
In the case of B17, the Response in assay [1] worked out at 0.14. In assay [2], the dissociation constant Kd is < 0.001 nM, the off-rate (koff) is < 1e-07 s⁻¹ and the on-rate constant (kon) came out at 77000 M⁻¹ s⁻¹.

B18: 75110_05E05A (antibody, V domains shown)
VH: QVQLQESGPGLVKPSETLSLTCTVSGGSIGSYYWSWIRQPAGKGLEWIGRIYTSGSTNYNPSLKSRVTMSFDTSKNQFSLKLNSVTAADTAVYYCATDGGVGDSLDYWGQGTLVTVSS
VL: DIVMTQTPLSLPVTPGEPASISCRSSQSLLDSDDGNTYLDWYLQKPGQSPQLLIYTLSYRASGVPDRFSGSGSGTDFTLKISRVEAEDVGVYYCMQHIEFPFTFGPGTKVDIK
notes: as for B1
As to B18, the Response in assay [1] is 0.24. Moreover, in assay [2], the dissociation constant Kd is 0.95 nM, the dissociation rate constant (koff) was 0.00013 s⁻¹ and the on-rate (kon) was 140000 M⁻¹ s⁻¹.

B19: 75110_05E13A (antibody, V domains shown)
VH: EVQLVESGGDLVKPGGSLRLSCAASGFSFSNAWMSWVRQAPGKGLEWVGRVESKTDGGTTDYAAPVKDRFTISRDDSKYTLYLQMNSLKTEDSAVYYCTIGGGFGLELYGFFDYWGQGTLVTVSS
VL: DIQMTQSPSTLSASVGDRVTITCRASQSISSWLAWYQQKPGKAPMLLIYKASSLESGVPSRFSGSGSGTEFTLTISSLQPDDFATYYCLQYNSYYTFGQGTKLEIK
notes: as for B1
With B19, the Response in assay [1] worked out at 0.33. In assay [2], the equilibrium dissociation constant (Kd) was 7.4 nM, the dissociation rate constant (koff) is 0.0012 s⁻¹ and the kon was 160000 M⁻¹ s⁻¹.
